Drawing on publication PMC9206387, “LILRB2-mediated TREM2 signaling inhibition suppresses microglia functions” (Molecular Neurodegeneration, 2022), this text covers Kd and koff for two molecules.

For this assay, the target named is T1, oligomeric β-amyloid (1-42) (UniProt P05067 672-713).
T1 construct: the cut product β-amyloid (1-42) of the amyloid precursor protein; Oligomer; The methods of the direct BLI, reporter and BiFc assays name no label for oAβ; also called oAβ; Oligomer Aβ; source: bought: AnaSpec (lyophilized powder); HFIP-treated, dissolved in DMSO, oligomerised in DPBS at 37 °C overnight
The assay is described as follows: BLI; protein A sensor-captured Fc fusion proteins, oAβ at multiple concentrations, 1:1 binding model, KD calculated as kdis/kon. To be noted: both partners purified.

B1: TREM2-Fc fusion protein (extracellular domain of TREM2 fused to human IgG1 Fc) (Fc fusion, UniProt Q9NZC2 19-174, looked up)
chain: HNTTVFQGVAGQSLQVSCPYDSMKHWGRRKAWCRQLGEKGPCQRVVSTHNLWLLSFLRRWNGSTAITDDTLGGTLTITLRNLQPHDAGLYQCQSLHGSEADTLRKVLVEVLADPLDHRDAGDLWFPGESESFEDAHVEHSISRSLLEGEIPFPPTS
notes: triggering receptor expressed on myeloid cells 2 (TREM2), extracellular domain (ECD); source: Expi 293 cells, purified (protein A agarose)
As a reminder, the Kd is a measure of binding affinity in units of concentration. Broadly, the koff is the rate constant with which the complex falls apart. For the molecule B1, the dissociation constant (Kd) was 12.6 nM and the dissociation rate constant (koff) was 0.000123 s⁻¹.

B2: LILRB2-Fc fusion protein (extracellular domain of LILRB2 fused to human IgG1 Fc) (Fc fusion, UniProt Q8N423 22-460, looked up)
chain: QTGTIPKPTLWAEPDSVITQGSPVTLSCQGSLEAQEYRLYREKKSASWITRIRPELVKNGQFHIPSITWEHTGRYGCQYYSRARWSELSDPLVLVMTGAYPKPTLSAQPSPVVTSGGRVTLQCESQVAFGGFILCKEGEDEHPQCLNSQPHARGSSRAIFSVGPVSPNRRWSHRCYGYDLNSPYVWSSPSDLLELLVPGVSKKPSLSVQPGPVMAPGESLTLQCVSDVGYDRFVLYKEGERDLRQLPGRQPQAGLSQANFTLGPVSRSYGGQYRCYGAHNLSSECSAPSDPLDILITGQIRGTPFISVQPGPTVASGENVTLLCQSWRQFHTFLLTKAGAADAPLRLRSIHEYPKYQAEFPMSPVTSAHAGTYRCYGSLNSDPYLLSHPSEPLELVVSGPSMGSSPPPTGPISTPGPEDQPLTPTGSDPQSGLGRHLGV
notes: leukocyte immunoglobulin-like receptor subfamily B member 2 (LILRB2), extracellular domain (ECD) with four Ig-like domains; source: Expi 293 cells, purified (protein A agarose)
Consider B2, for which the Kd was 69.3 nM and the off-rate constant (koff) was 0.000593 s⁻¹.
